Results taken from article PMC6434538.
Where two headings read alike, the source gives them in different places.

How the values were obtained:
RIG-I wild type [1] = molecular target: T1, RIG-I wild type (UniProt O95786 1-925); assay: fluorescence intensity titration
T1 sequence: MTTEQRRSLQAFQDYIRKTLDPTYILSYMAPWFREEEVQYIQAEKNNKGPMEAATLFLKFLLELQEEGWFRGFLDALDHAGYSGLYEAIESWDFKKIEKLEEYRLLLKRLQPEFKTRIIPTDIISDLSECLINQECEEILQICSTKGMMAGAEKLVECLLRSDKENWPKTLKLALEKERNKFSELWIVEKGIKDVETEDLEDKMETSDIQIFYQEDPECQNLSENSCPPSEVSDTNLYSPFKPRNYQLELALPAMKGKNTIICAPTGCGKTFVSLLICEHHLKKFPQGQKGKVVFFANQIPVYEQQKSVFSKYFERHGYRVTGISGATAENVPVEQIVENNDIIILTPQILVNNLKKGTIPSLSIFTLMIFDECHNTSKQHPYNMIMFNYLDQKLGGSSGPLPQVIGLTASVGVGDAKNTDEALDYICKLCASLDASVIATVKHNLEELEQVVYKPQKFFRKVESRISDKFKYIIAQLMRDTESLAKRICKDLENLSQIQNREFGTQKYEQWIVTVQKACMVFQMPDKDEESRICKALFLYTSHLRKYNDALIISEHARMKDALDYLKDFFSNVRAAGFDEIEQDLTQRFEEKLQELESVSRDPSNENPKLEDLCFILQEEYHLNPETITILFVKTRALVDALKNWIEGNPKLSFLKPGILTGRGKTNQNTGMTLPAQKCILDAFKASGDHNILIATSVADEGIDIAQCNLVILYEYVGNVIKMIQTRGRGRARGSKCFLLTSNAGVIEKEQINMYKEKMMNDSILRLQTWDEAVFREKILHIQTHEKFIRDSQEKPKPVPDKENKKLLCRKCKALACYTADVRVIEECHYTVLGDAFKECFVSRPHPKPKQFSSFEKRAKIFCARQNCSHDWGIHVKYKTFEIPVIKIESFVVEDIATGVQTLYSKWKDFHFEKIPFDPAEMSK

RIG-I wild type [2] = molecular target: T1, RIG-I wild type; assay: fluorescence intensity titration; remark: listed apart in the source
RIG-I wild type [3] = molecular target: T1, RIG-I wild type; assay: ATPase titration or fluorescence titration

B1: 3'ovg dsRNA (dsRNA)
RNA 1: ACGUCCUGAUAGUUAGUAUCCAUCG
RNA 2: CGAUGGAUACUAACUAUCAGGACGUAU
modifications: 5'OH
With B1 the binding signal (RIG-I wild type [1]) was 7 fold higher Kd than 5'ppp dsRNA and the binding signal (RIG-I wild type [2]) was 50 fold higher Kd than 5'ppp dsRNA.

B2: 5'ppp dsRNA 27 bp (dsRNA)
RNA 1: AUACGUCCUGAUAGUUAGUAUCCAUCG
RNA 2: CGAUGGAUACUAACUAUCAGGACGUAU
modifications: 5'-triphosphate on strand 1
B2 showed a Kd (RIG-I wild type [3]) of 2.5 nM.

B3: 5'OH dsRNA 27 bp (dsRNA)
RNA 1: AUACGUCCUGAUAGUUAGUAUCCAUCG
RNA 2: CGAUGGAUACUAACUAUCAGGACGUAU
modifications: 5'OH
In the case of B3, the binding signal (RIG-I wild type [1]) is reported as 1.5 fold higher Kd than 5'ppp dsRNA.
